Data reported in paper PMC3689823.

Columns and labels:
YFP-Clu (human) [1] = test: FRET or BRET; receptor (acceptor) photobleaching FRET in co-transfected HEK293T cells, CFP donor and YFP receptor, bleached at 515 nm for 60 s
YFP-Clu (human) [2] = test: FRET or BRET; sensitized emission FRET in co-transfected HEK293T cells, CFP donor and YFP receptor, laser confocal microscope

- FRET efficiency (YFP-Clu (human) [1]): 41.8%
Substance: CFP-SelR′ (from UniProt Q9NZV6 1-116) (enzyme)
- FRET efficiency (YFP-Clu (human) [2]): 40%
